Target: 2b-3×Flag (pGD-2b-3×Flag) (cucumber mosaic virus (CMV)) (UniProt Q66125)

## VISP1-GFP (pGDGm-VISP1-GFP) (natural protein)
  accumulation of 2b-Flag co-expressed with VISP1-Myc, relative to empty vector (immunoblot, N. benthamiana leaves, 60 hpi): 0.11 fold
